The values that follow come from patent US20030203372A1, “Analysis method” (priority 2000, published 2003).

This data set deals with human breast and ovary tumors. The experiment in a line: Custom gene array, breast and ovary tumors versus normal adjacent tissue. As to conditions: Table 19. The source says: A study has been performed to examine the expression of these genes in a selection of breast and ovary tumors, comparing expression with normal adjacent tissue from the same patient. There is expected to be a large degree of variation between different patients, and the study here contains only 5 patients with a range of diagnoses.
Patients are designated as Letters:
E: person. Diagnosis: ovarian adenocarcinoma. Normal ovarian tissue derived from an age-matched separate individual.
: person. Diagnosis: poorly differentiated adenocarcinoma. Normal ovarian tissue derived from the same individual.
G: person. Diagnosis: moderately-differentiated adenocarcinoma. Normal ovarian tissue derived from the same individual.
H: person. Diagnosis: invasive ductal carcinoma. Normnal breast tissue derived from the same individual.
K: person. Diagnosis: invasive ductal carcinoma. Normal breast tissue derived from the same individual.
Data normalisation was done per-chip to correct for differences in labelling and hybridization efficiency. Per-gene normalisation was done such that the expression values of each gene are relative to the median value of that gene throughout the series of samples. By comparing the expression values under normal (nor) and tumor (turn) for a single patient, differences in expression between the normal and malignant tissue of that patient can be inferred.

B1: p1K9 (nucleic acid, listed as Homo Sapiens)
DNA: AGTGTGAAATCTTCAGAGAAGAATTTCTCTTTAGTTCTTTGCAAGAAGGTAGAGATAAAGACACTTTTTCAAAAATGGCAATGGTATCAGAATTCCTCAAGCAGGCCTGGTTTATTGAAAATGAAGAGCAGGAATATGTTCAAACTGTGAAGTCATCCAAAGGTGGTCCCGGATCAGCGGTGAGCCCCTATCCTACCTTCAATCCATCCTCGGATGTCGCTGCCTTGCATAAGGCCATAATGGTTAAAGGTGTGGATGAAGCAACCATCATTGACATTCTAACTAAGCGAAACAATGCACAGCGTCAACAGATCAAAGCAGCATATCTCCAGGAAACAGGAAAGCCCCTGGATGAAACACTTAAGAAAGCCCTTACAGGTCACCTTGAGGAGGTTGTTTTAGCTCTGCTAAAAACTCCAGCGCAATTTGATGCTGATGAACTTCGTGCTGCCATGAAGGGCCTTGGAACTGATGAAGATACTCTAATTGAGATTTTGGCATCAAGAACTAACAAAGAAATCAGAGACATTAACAGGGTCTACAGAGAGGAACTGAAGAGAGATCTGGCCAAAGACATAACCTCAGACACATCTGGAGATTTTCGGAACGCTTTGCTTTCTCTTGCTAAGGGTGACCGATCTGAGGACTTTGGTGTGAATGAAGACTTGGCTGATTCAGATGCCAGGGCCTTGTATGAAGCAGGAGAAAGGAGAAAGGGGACAGACGTAAACGTGTTCAATACCATCCTTACCACCAGAAGCTATCCACAACTTCGCAGAGTGTTTCAGAAATACACCAAGTACAGTAAGCATGACATGAACAAAGTTCTGGACCTGGAGTTGAAAGGTGACATTGAGAAATGCCTCACAGCTATCGTGAAGTGCGCCACAAGCAAACCAGCTTTCTTTGCAGAGAAGCTTCATCAAGCCATGAAAGGTGTTGGAACTCGCCATAAGGCATTGATCAGGATTATGGTTTCCCGTTCTGAAATTGACATGAATGATATCAAAGCATTCTATCAGAAGATGTATGGTATCTCCCTTTGCCAAGCCATCCTGGATGAAACCAAAGGAGATTATGAGAAAATCCTGGTGGCTCTTTGTGGAGGAAACTAAACATTCCCTTGATGGTCTCAAGCTATGATCAGAAGACTTTAATTATATATTTTCATCCTATAAGCTTAAATAGGAAAGTTTCTTCAACAGGATTACAGTGTAGCTACCTACATGCTGAAAAATATAGCCTTTAAATCATTTTTATATTATAACTCTGTATAATAGAGATAAGTCCATTTTTTAAAAATGTTTTCCCCAAACCATAAAACCCTATACAAGTTGTTCTAGTAACAATACATGAGAAAGATGTCTATGTAGCTGAAAATAAAATGACGTCACAAGAC
For B1, the “gene expression level on custom gene array, Breast nor H” value (breast, normal adjacent tissue, patient H) turned out to be 1.20. In addition, the “gene expression level on custom gene array, Breast nor K” value (breast, normal adjacent tissue, patient K) was 0.23. Where the note is “breast, tumor tissue, patient H”, the “gene expression level on custom gene array, Breast tum H” value is 0.54. In addition, the “gene expression level on custom gene array, Breast tum K” value (breast, tumor tissue, patient K) was determined as 0.12. Moreover, the “gene expression level on custom gene array, Ovary nor E” value (ovary, normal adjacent tissue, patient E) stood at 0.46. Besides, the “gene expression level on custom gene array, Ovary nor F” value (ovary, normal adjacent tissue, patient F) worked out at 1.33. In addition, for the setting “ovary, normal adjacent tissue, patient G”, the “gene expression level on custom gene array, Ovary nor G” value came to 1.07. The “gene expression level on custom gene array, Ovary tum E” value (ovary, tumor tissue, patient E) is 4.09. Further, the “gene expression level on custom gene array, Ovary tum F” value (ovary, tumor tissue, patient F) came to 1.17. The “gene expression level on custom gene array, Ovary tum G” value (ovary, tumor tissue, patient G) was 0.31.
